This is an account of results in patent US20180265577A1 (Eli Lilly, published 2018).

One may read the EC50 as the concentration at which the effect is half-maximal. Usually koff stands for the first-order rate constant of dissociation. The term kon denotes the second-order rate constant of association.

Experiment [1] has as its target T1, tau aggregates in sarkosyl-insoluble brain homogenate preps of 4.5 to 5 month old P301S mice. Briefly: cell-based or functional assay.
The target in experiment [2] is T2, human tau aggregates (human, UniProt P10636 2-758).
T2 construct: analyte in SPR; also called fibril tau; tau fibril aggregate
T2 sequence (P10636 other isoform, or with tags, fused parts or gaps limits assumed): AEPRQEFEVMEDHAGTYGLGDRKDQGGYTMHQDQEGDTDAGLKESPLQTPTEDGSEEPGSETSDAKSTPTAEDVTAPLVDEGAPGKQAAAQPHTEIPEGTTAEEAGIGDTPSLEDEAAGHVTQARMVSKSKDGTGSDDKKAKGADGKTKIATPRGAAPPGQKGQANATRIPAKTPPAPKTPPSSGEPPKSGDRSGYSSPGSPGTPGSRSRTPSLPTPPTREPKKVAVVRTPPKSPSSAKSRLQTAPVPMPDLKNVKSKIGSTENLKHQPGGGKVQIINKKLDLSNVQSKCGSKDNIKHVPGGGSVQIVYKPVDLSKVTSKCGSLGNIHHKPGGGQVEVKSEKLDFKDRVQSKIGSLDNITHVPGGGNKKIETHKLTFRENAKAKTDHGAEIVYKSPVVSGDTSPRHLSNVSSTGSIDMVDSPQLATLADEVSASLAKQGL
In words: SPR (Biacore 2000), antibody captured on protein A, tau aggregate as analyte, 1:1 fit; not normalized for avidity. The method, then:
(§1) Surface Plasmon Resonance (SPR) assay, measured with a BIACORE® 2000 instrument (primed with HBS-EP+ running buffer (GE Healthcare, 10 mM Hepes pH7.4+150 mM NaCl+3 mM EDTA+0.05% surfactant P20) at 25° C.), is used to measure binding of exemplified tau monoclonal antibody of Example 1 to both human monomeric (e.g., native or non-aggregate) tau and human tau aggregates (both having the amino acid sequence as set forth in SEQ ID NO:13). Binding of humanized MC-1 antibody construct (having the framework combination: 5-51 heavy-chain, A27 light-chain) to human monomeric tau and human tau aggregate is measured in the same manner.
(§2) Except as noted, all reagents and materials are from BIACORE® AB (Upsala, Sweden). A CMS chip containing immobilized protein A (generated using standard NHS-EDC amine coupling) on all four flow cells (FC) is used to employ a capture methodology. […]
(§3) Data of binding to tau aggregate is processed using standard double-referencing and fit to a 1:1 binding model using Biacore 2000 Evaluation software, version 4.1, to determine the association rate (kₒₙ, M⁻¹ s⁻¹ units), dissociation rate (koff, s⁻¹ units), and Rₘₐₓ (RU units). The equilibrium dissociation constant (KD) was calculated from the relationship KD=koff/kₒₙ, and is in molar units. Data of binding to monomeric tau cannot be determined accurately by SPR as described above due to rapid on- and off-rates. […]
(SPR reads the build-up and loss of mass on a sensor chip optically.)

The target of experiment [3] is T3, recombinant tau (rTau) (UniProt P10636-8 1-441, limits assumed).
T3 construct: Coated at 'high' (1 ug/mL, simulates aggregated tau) or 'low' (15 ng/mL, simulates tau monomer) concentration; also called rTau Monomer
T3 sequence (P10636 other isoform, or with tags, fused parts or gaps limits assumed): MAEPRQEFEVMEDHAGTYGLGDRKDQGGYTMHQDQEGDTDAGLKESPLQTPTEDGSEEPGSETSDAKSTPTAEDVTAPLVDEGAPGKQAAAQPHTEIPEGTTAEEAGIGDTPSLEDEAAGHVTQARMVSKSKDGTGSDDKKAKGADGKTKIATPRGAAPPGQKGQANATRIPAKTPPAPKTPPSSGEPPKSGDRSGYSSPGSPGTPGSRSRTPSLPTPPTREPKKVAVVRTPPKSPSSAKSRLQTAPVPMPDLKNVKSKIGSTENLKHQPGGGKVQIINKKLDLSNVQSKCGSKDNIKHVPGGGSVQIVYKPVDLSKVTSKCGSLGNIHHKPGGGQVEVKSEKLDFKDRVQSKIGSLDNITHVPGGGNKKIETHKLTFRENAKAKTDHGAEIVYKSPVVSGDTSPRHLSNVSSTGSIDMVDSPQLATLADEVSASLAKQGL
Briefly: direct ELISA, rTau coated at 'High' concentration (1 ug/mL), simulates aggregated tau. The method, then: (§4) 3690) at a concentration corresponding to 0.7 μg/ml of total tau. Plates are incubated overnight at 4° C., then washed three times with 150 μl of PBST (PBS containing 0.05% Tween-20), blocked in 100 μl BB3 (ImmunoChemistry Technology, p/n. 643) at room temperature for at least 1 hr (usually 2 hrs). Following blocking, the blocking buffer is removed from the wells. Exemplified tau monoclonal antibody of Example 1 and a humanized MC-1 antibody construct (having the framework combination: 5-51 heavy-chain, A27 light-chain) are diluted in 0.25% casein buffer to 1000 nM stock, then diluted serially 23 times with two fold dilutions. […] Reaction is stopped by adding 50 μl stop solution (2N H2SO4) and colorimetric signal is measured at 450 nm. […]
(§5) Selectivity of tau monoclonal antibody of Example 1 to tau aggregates versus tau monomer is determined by direct ELISA. […] The plates, coated with high or low concentrations of rTau, respectively, are exposed to exemplified tau monoclonal antibody of Example 1 and binding of exemplified tau monoclonal antibody to the respective concentrations of rTau is measured substantially as described in the ELISA assay above.

Experiment [4] concerns the target T1, tau aggregates in sarkosyl-insoluble …. Briefly: cell-based or functional assay. This is another data set of the same source.
For experiment [5], the target named is T2, human tau aggregates. Briefly: SPR (Biacore 2000), antibody captured on protein A, tau aggregate as analyte, 1:1 fit. On the procedure: as §1, §2, §3
Experiment [6] concerns the target T3, recombinant tau (rTau). Briefly: direct ELISA on rTau coated at 15 ng/ml; antibody stored 4 weeks at pH 6, 4 C; Study 2. On the procedure: (§6) Formulated samples are incubated for four weeks at 4° C. or 40° C. in an accelerated degradation study. Following incubation, binding affinity of the exemplified tau monoclonal antibody of Example 1 to rTau (15 ng/ml) coated on 96-well plates is determined by direct ELISA following the ELISA procedure substantially as described above.
(An ELISA detects its analyte on a solid surface through an enzyme-linked reagent.)

Experiment [7] addresses T3, recombinant tau (rTau). Briefly: direct ELISA on rTau coated at 15 ng/ml; antibody stored 4 weeks at pH 4, 40 C; Study 2. The method, then:
as §6

Experiment [8] addresses T4, purified tau fibrils from AD brain homogenates (human, UniProt P10636-8 2-441, limits assumed).
T4 construct: Native brain-derived aggregated tau, coated at 0.7 ug/ml total tau; also called Purified AD Tau Fibrils; aggregate tau fibrils from AD brain homogenates
In words: direct ELISA on coated purified AD tau fibrils (0.7 ug/ml total tau). On the procedure: (§7) Purified tau fibrils (50 μl) in PBS are coated on wells of 96-well plates (Coastar, p/n. 3690) at a concentration corresponding to 0.7 μg/ml of total tau. Plates are incubated overnight at 4° C., then washed three times with 150 μl of PBST (PBS containing 0.05% Tween-20), blocked in 100 μl BB3 (ImmunoChemistry Technology, p/n. 643) at room temperature for at least 1 hr (usually 2 hrs). Following blocking, the blocking buffer is removed from the wells. Exemplified tau monoclonal antibody of Example 1 and a humanized MC-1 antibody construct (having the framework combination: 5-51 heavy-chain, A27 light-chain) are diluted in 0.25% casein buffer to 1000 nM stock, then diluted serially 23 times with two fold dilutions. 50 μl of stock and serially diluted antibody (either exemplified tau monoclonal of Example 1 or humanized MC-1 antibody construct) are added to separate wells and incubated for 2 hours at room temperature, after which the plate is washed four times with 200 μl PBST per well. 50 μl of anti-human IgG-HRP antibodies (diluted at 1:4000 into 0.25% casein buffer) is added and incubated for 1 hour at room temperature, after which the plate is washed with 200 μl PBST per well 4 times. 50 μl of TMB/H2O2 is added and incubated at room temperature for about 10 minutes. Reaction is stopped by adding 50 μl stop solution (2N H2SO4) and colorimetric signal is measured at 450 nm. […]

Experiment [9] deals with T3, recombinant tau (rTau). In words: direct ELISA on rTau coated at 15 ng/ml; antibody stored 4 weeks at pH 4, 40 C; Study 1. On the procedure: as §6
In experiment [10] the target is T3, recombinant tau (rTau). Briefly: direct ELISA on rTau coated at 15 ng/ml; antibody stored 4 weeks at pH 6, 40 C; Study 1. On the procedure:
as §6

Experiment [11] deals with T4, purified tau fibrils from AD brain …. Briefly: direct ELISA on coated purified AD tau fibrils. The method, then: as §7
Experiment [12] has as its target T3, recombinant tau (rTau). Briefly: direct ELISA on rTau coated at 15 ng/ml; antibody stored 4 weeks at pH 6, 4 C; Study 1. The method, then: as §6
Experiment [13] addresses T3, recombinant tau (rTau). In words: direct ELISA on rTau coated at 15 ng/ml; antibody stored 4 weeks at pH 6, 40 C; Study 2. The method, then:
as §6

Experiment [14] has as its target T3, recombinant tau (rTau). Briefly: direct ELISA, rTau coated at 'Low' concentration (15 ng/mL), simulates tau monomer. The method, then: as §4, §5
The target of experiment [15] is T5, human monomeric (native or non-aggregate) tau (human, UniProt P10636 2-758).
T5 construct: Full-length human tau in monomeric state; analyte in SPR; also called Monomeric Tau; monomeric tau
Briefly: SPR (Biacore 2000), antibody captured on protein A, tau as analyte, steady state fit. On the procedure: as §1, §2, §3

In experiment [16] the target is T3, recombinant tau (rTau). In words: direct ELISA, rTau coated at high (1 ug/mL) against low (15 ng/mL) concentration. The method, then:
as §4, §5

B1: exemplified tau monoclonal antibody of Example 1 (antibody, human IgG4 S228P, kappa, F234A L235A, V domains shown)
VH: EVQLVQSGAEVKKPGESLKISCKGSGYTFSNYWIEWVRQMPGKGLEWMGEILPGSDSIKYEKNFKGQVTISADKSISTAYLQWSSLKASDTAMYYCARRGNYVDDWGQGTLVTVSS
VL: EIVLTQSPGTLSLSPGERATLSCRSSQSLVHSNQNTYLHWYQQKPGQAPRLLIYKVDNRFSGIPDRFSGSGSGTDFTLTISRLEPEDFAVYYCSQSTLVPLTFGGGTKVEIKR
notes: Humanized IgG4 (HC framework 5-51), kappa LC (framework A27); expressed in CHO cells; Carries seven CDR changes relative to murine MC-1; also called exemplified engineered tau monoclonal antibody
As to B1, in experiment [1], the “fold improvement in the inhibition of induced tau aggregate propagation (against humanized MC-1 antibody construct)” value was ~30 fold. The results for the Kd (with human tau aggregates [2]; in experiment [15]) were < 0.22 nM and 235 nM, respectively. Besides, the 50% effective concentration (EC50) in the experiment with recombinant tau (rTau) [3] was 0.006 nM; in the experiment with recombinant tau (rTau) [6] it was 0.636 nM; with recombinant tau (rTau) [7], 0.277 nM; in experiment [8], 0.0068 nM; in the experiment with recombinant tau (rTau) [9], 0.414 nM; with recombinant tau (rTau) [10], 0.754 nM. For the same molecule, the concentration for a half-maximal effect (EC50) is 0.926 nM in the experiment with recombinant tau (rTau) [12], 0.667 nM with recombinant tau (rTau) [13] and 0.723 nM in the experiment with recombinant tau (rTau) [14]. In experiment [4], the “EC50 (representing inhibition of AT8-Positive Tau Aggregate propagation (ng/mL))” value amounted to 16 ng/mL. In the experiment with human tau aggregates [5], the dissociation rate constant (koff) was < 1e-05 s⁻¹. In addition, in the experiment with human tau aggregates [5], the kon stood at 45900 M⁻¹ s⁻¹. Also, in experiment [11], the “fold improved affinity (as measured by EC50) over humanized MC-1 antibody construct” value is 60 fold. Besides, the “fold improved affinity (as measured by EC50) to aggregate tau over monomeric tau” value in the experiment with recombinant tau (rTau) [16] came to 120 fold.
